According to patent US20070078092A1 (CUREGENICS, published 2007):
Square brackets hold non-standard residues; d marks the D form. Ends that are not written are not given here. * marks the point of attachment. Cholesteryloxycarbonyl = CC(C)CCC[C@@H](C)[C@H]1CC[C@H]2[C@@H]3CC=C4C[C@@H](OC(=O)*)CC[C@]4(C)[C@H]3CC[C@]12C; Lithocholoyl = C[C@H](CCC(=O)*)[C@H]1CC[C@H]2[C@@H]3CC[C@@H]4C[C@H](O)CC[C@]4(C)[C@H]3CC[C@]12C; Biotin = O=C1N[C@H]2[C@H](CS[C@H]2CCCCC(=O)*)N1; Myristoyl = CCCCCCCCCCCCCC(=O)*; hLeu = CC(C)CC[C@H](N)C(=O)O; Orn = NCCC[C@H](N)C(=O)O; Nva = CCC[C@H](N)C(=O)O; Dap = NC[C@H](N)C(=O)O

B1: PTR 6192 (peptide)
peptide: Lithocholoyl-GRPR[Nva]YA[hLeu]-NH2
B2: PTR 6158 (peptide)
peptide: Biotin-RPR[Nva]Y[Dap][hLeu]-NH2
B3: PTR 6194 (peptide)
peptide: Lithocholoyl-RPR[Nva]YA[hLeu]-NH2
SMILES: CCC[C@H](NC(=O)[C@H](CCCNC(=N)N)NC(=O)[C@@H]1CCCN1C(=O)[C@H](CCCNC(=N)N)NC(=O)CC[C@@H](C)[C@H]1CC[C@H]2[C@@H]3CC[C@@H]4C[C@H](O)CC[C@]4(C)[C@H]3CC[C@]12C)C(=O)N[C@@H](Cc1ccc(O)cc1)C(=O)N[C@@H](C)C(=O)N[C@@H](CCC(C)C)C(N)=O
B4: PTR 6224 (peptide)
peptide: {Galactopyranosyl‑O‑CO}-RPR[Nva]YA[hLeu]-NH2
B5: PTR 6182 (peptide)
peptide: {S‑carbofluorescin}-RPR[Nva]Y[Dap][hLeu]-NH2
B6: PTR 6202 (peptide)
peptide: RPR[Nva]YA[hLeu]-NH2
modifications: not fully specified (N-terminus)
B7: PTR 6160 (peptide)
peptide: Lauryl-RPR[Nva]Y[Dap][hLeu]-NH2
B8: PTR 6200 (peptide)
peptide: {H‑1‑adamantyl}-RPR[Nva]YA[hLeu]-NH2
B9: PTR 6196 (peptide)
peptide: Cholesteryloxycarbonyl-RPR[Nva]YA[hLeu]-NH2
SMILES: CCC[C@H](NC(=O)[C@H](CCCNC(=N)N)NC(=O)[C@@H]1CCCN1C(=O)[C@H](CCCNC(=N)N)NC(=O)O[C@H]1CC[C@@]2(C)C(=CC[C@H]3[C@@H]4CC[C@H]([C@H](C)CCCC(C)C)[C@@]4(C)CC[C@@H]32)C1)C(=O)N[C@@H](Cc1ccc(O)cc1)C(=O)N[C@@H](C)C(=O)N[C@@H](CCC(C)C)C(N)=O
B10: PTR 6252 (peptide)
peptide: [dR][dR][dR][dR][dR][dR][dR][dR][dR]GRPR[Nva]YA[hLeu]-NH2
modifications: N-terminus assumed
SMILES: CCC[C@H](NC(=O)[C@H](CCCNC(=N)N)NC(=O)[C@@H]1CCCN1C(=O)[C@H](CCCNC(=N)N)NC(=O)CNC(=O)[C@@H](CCCNC(=N)N)NC(=O)[C@@H](CCCNC(=N)N)NC(=O)[C@@H](CCCNC(=N)N)NC(=O)[C@@H](CCCNC(=N)N)NC(=O)[C@@H](CCCNC(=N)N)NC(=O)[C@@H](CCCNC(=N)N)NC(=O)[C@@H](CCCNC(=N)N)NC(=O)[C@@H](CCCNC(=N)N)NC(=O)[C@H](N)CCCNC(=N)N)C(=O)N[C@@H](Cc1ccc(O)cc1)C(=O)N[C@@H](C)C(=O)N[C@@H](CCC(C)C)C(N)=O
B11: PTR 6198 (peptide)
peptide: Cholesteryloxycarbonyl-GRPR[Nva]YA[hLeu]-NH2
SMILES: CCC[C@H](NC(=O)[C@H](CCCNC(=N)N)NC(=O)[C@@H]1CCCN1C(=O)[C@H](CCCNC(=N)N)NC(=O)CNC(=O)O[C@H]1CC[C@@]2(C)C(=CC[C@H]3[C@@H]4CC[C@H]([C@H](C)CCCC(C)C)[C@@]4(C)CC[C@@H]32)C1)C(=O)N[C@@H](Cc1ccc(O)cc1)C(=O)N[C@@H](C)C(=O)N[C@@H](CCC(C)C)C(N)=O
B12: PTR 6180 (peptide)
peptide: Myristoyl-GRPR[Nva]Y[Dap][hLeu]-NH2
SMILES: CCCCCCCCCCCCCC(=O)NCC(=O)N[C@@H](CCCNC(=N)N)C(=O)N1CCC[C@H]1C(=O)N[C@@H](CCCNC(=N)N)C(=O)N[C@@H](CCC)C(=O)N[C@@H](Cc1ccc(O)cc1)C(=O)N[C@@H](CN)C(=O)N[C@@H](CCC(C)C)C(N)=O
B13: PTR 6164 (peptide)
peptide: Cholesteryloxycarbonyl-RPR[Nva]Y[Dap][hLeu]-NH2
SMILES: CCC[C@H](NC(=O)[C@H](CCCNC(=N)N)NC(=O)[C@@H]1CCCN1C(=O)[C@H](CCCNC(=N)N)NC(=O)O[C@H]1CC[C@@]2(C)C(=CC[C@H]3[C@@H]4CC[C@H]([C@H](C)CCCC(C)C)[C@@]4(C)CC[C@@H]32)C1)C(=O)N[C@@H](Cc1ccc(O)cc1)C(=O)N[C@@H](CN)C(=O)N[C@@H](CCC(C)C)C(N)=O
B14: PTR 6244 (peptide)
peptide: {Vitamin E succinate}-RPR[Nva]Y[Dap][hLeu]-NH2
B15: PTR 6260 (peptide)
peptide: Cholesteryloxycarbonyl-RPR[Orn]E(Aminoethylsulfonamidoisoquinoline)SF-NH2
B16: MPS ab60025-50 (peptide)
peptide: [dK][dK][dK][dK][dK][dK][dK][dK][dK][dK]RPR[Nva]Y[Dap][hLeu]-NH2
modifications: N-terminus assumed
SMILES: CCC[C@H](NC(=O)[C@H](CCCNC(=N)N)NC(=O)[C@@H]1CCCN1C(=O)[C@H](CCCNC(=N)N)NC(=O)[C@@H](CCCCN)NC(=O)[C@@H](CCCCN)NC(=O)[C@@H](CCCCN)NC(=O)[C@@H](CCCCN)NC(=O)[C@@H](CCCCN)NC(=O)[C@@H](CCCCN)NC(=O)[C@@H](CCCCN)NC(=O)[C@@H](CCCCN)NC(=O)[C@@H](CCCCN)NC(=O)[C@H](N)CCCCN)C(=O)N[C@@H](Cc1ccc(O)cc1)C(=O)N[C@@H](CN)C(=O)N[C@@H](CCC(C)C)C(N)=O
B17: MPS ab60025-94 (peptide)
peptide: [dR][dR][dR][dR][dR][dR][dR]RPR[Nva]Y[Dap][hLeu]-NH2
modifications: N-terminus assumed
SMILES: CCC[C@H](NC(=O)[C@H](CCCNC(=N)N)NC(=O)[C@@H]1CCCN1C(=O)[C@H](CCCNC(=N)N)NC(=O)[C@@H](CCCNC(=N)N)NC(=O)[C@@H](CCCNC(=N)N)NC(=O)[C@@H](CCCNC(=N)N)NC(=O)[C@@H](CCCNC(=N)N)NC(=O)[C@@H](CCCNC(=N)N)NC(=O)[C@@H](CCCNC(=N)N)NC(=O)[C@H](N)CCCNC(=N)N)C(=O)N[C@@H](Cc1ccc(O)cc1)C(=O)N[C@@H](CN)C(=O)N[C@@H](CCC(C)C)C(N)=O
B18: MPS ab60025-4 (peptide)
peptide: RQIKIWFQNRRMKWKKRPRXYAX
modifications: Nva, Hol of the 6184 part
B19: MPS ab60025-82 (peptide)
peptide: [dK][dK][dK][dK][dK][dK][dK][dK]RPR[Nva]Y[Dap][hLeu]-NH2
modifications: N-terminus assumed
SMILES: CCC[C@H](NC(=O)[C@H](CCCNC(=N)N)NC(=O)[C@@H]1CCCN1C(=O)[C@H](CCCNC(=N)N)NC(=O)[C@@H](CCCCN)NC(=O)[C@@H](CCCCN)NC(=O)[C@@H](CCCCN)NC(=O)[C@@H](CCCCN)NC(=O)[C@@H](CCCCN)NC(=O)[C@@H](CCCCN)NC(=O)[C@@H](CCCCN)NC(=O)[C@H](N)CCCCN)C(=O)N[C@@H](Cc1ccc(O)cc1)C(=O)N[C@@H](CN)C(=O)N[C@@H](CCC(C)C)C(N)=O
B20: MPS ab60025-49 (peptide)
peptide: RPR[Nva]Y[Dap][hLeu][dK][dK][dK][dK][dK][dK][dK][dK][dK][dK]-NH2
modifications: N-terminus assumed
SMILES: CCC[C@H](NC(=O)[C@H](CCCNC(=N)N)NC(=O)[C@@H]1CCCN1C(=O)[C@@H](N)CCCNC(=N)N)C(=O)N[C@@H](Cc1ccc(O)cc1)C(=O)N[C@@H](CN)C(=O)N[C@@H](CCC(C)C)C(=O)N[C@H](CCCCN)C(=O)N[C@H](CCCCN)C(=O)N[C@H](CCCCN)C(=O)N[C@H](CCCCN)C(=O)N[C@H](CCCCN)C(=O)N[C@H](CCCCN)C(=O)N[C@H](CCCCN)C(=O)N[C@H](CCCCN)C(=O)N[C@H](CCCCN)C(=O)N[C@H](CCCCN)C(N)=O
B21: MPS ab60025-2 (peptide)
peptide: RQIKIWFQNRRMKWKKRPRXYXX
modifications: Nva, Dap, Hol of the 6154 part

biological target: protein kinase A (PKA); experiment: cell-based or functional assay

B1 and B2 cannot be ordered by “IC50, kinase assay PKA” value: greater than 10000 nM for the first, greater than 100000 nM for the second.

Going from B3 to B4, the “IC50, kinase assay PKA” value falls from greater than 10000 nM to 8000 nM.

B5 and B6 cannot be ordered by “IC50, kinase assay PKA” value: greater than 10000 nM for the first, greater than 10000 nM for the second.

B7 and B8 cannot be ordered by “IC50, kinase assay PKA” value: 50000 nM for the first, greater than 10000 nM for the second.

biological target: protein kinase B (PKB); experiment: cell-based or functional assay

Going from B1 to B2, the “IC50, kinase assay PKB” value falls from 2500 nM to 1000 nM (2.5-fold).

First: B3
Second: B4
The “IC50, kinase assay PKB” value of the first is 2.5-fold lower: 2000 nM for the first, 5000 nM for the second.

Compared with B5, B6 is 10-fold lower in “IC50, kinase assay PKB” value: 3000 nM for the first, 300 nM for the second.

Compared with B7, B8 is 27-fold lower in “IC50, kinase assay PKB” value: 8000 nM for the first, 300 nM for the second.

biological target: protein kinase A (PKA); experiment: cell-based or functional assay; remark: another data set of the same source

First: B9
Second: B10
The “IC50, kinase assay PKA” value of the first is 2-fold lower: 5000 nM for the first, 10000 nM for the second.

First: B11
Second: B12
The “IC50, kinase assay PKA” value of the first is 4-fold lower: 5000 nM for the first, 20000 nM for the second.

B13 and B14 are the same in “IC50, kinase assay PKA” value: 10000 nM for the first, 10000 nM for the second.

For B15, the “IC50, kinase assay PKA” value was greater than 5000 nM.

biological target: protein kinase B (PKB); experiment: cell-based or functional assay; remark: another data set of the same source

First: B9
Second: B10
The “IC50, kinase assay PKB” value of the first is 1.6-fold lower: 500 nM for the first, 800 nM for the second.

Going from B11 to B12, the “IC50, kinase assay PKB” value rises from 500 nM to 900 nM (1.8-fold).

First: B13
Second: B14
The “IC50, kinase assay PKB” value of the first is 4.3-fold lower: 700 nM for the first, 3000 nM for the second.

In the case of B15, the “IC50, kinase assay PKB” value is reported as 1000 nM.

biological target: protein kinase B (PKB); experiment: cell-based or functional assay; remark: another data set of the same source

Compared with B16, B10 is lower in “% Inhibition of PKB activity at 1 µM” value: 93% for the first, 65% for the second.

Compared with B17, B18 is higher in “% Inhibition of PKB activity at 1 µM” value: 76% for the first, 80% for the second.

First: B19
Second: B20
The “% Inhibition of PKB activity at 1 µM” value of the first is lower: 78% for the first, 97% for the second.

For B21, the “% Inhibition of PKB activity at 1 µM” value was 60%.

Compared with B16, B10 is lower in “% Inhibition of PKB activity at 10 µM” value: 98% for the first, 93% for the second.

Compared with B17, B18 is higher in “% Inhibition of PKB activity at 10 µM” value: 92% for the first, 96% for the second.

Going from B19 to B20, the “% Inhibition of PKB activity at 10 µM” value rises from 92% to 99%.

In the case of B21, the “% Inhibition of PKB activity at 10 µM” value is reported as 92%.

biological target: protein kinase B (PKB); experiment: cell-based or functional assay; remark: another data set of the same source

Going from B16 to B10, the “IC50, in vitro PKB inhibition” value rises from 80 nM to 800 nM (10-fold).

Compared with B17, B18 is 2-fold lower in “IC50, in vitro PKB inhibition” value: 400 nM for the first, 200 nM for the second.

First: B19
Second: B20
The “IC50, in vitro PKB inhibition” value of the first is 10-fold higher: 400 nM for the first, 40 nM for the second.

For B21, the “IC50, in vitro PKB inhibition” value was 1000 nM.
